Here are results for 35 sequences from the Immune Epitope Database (IEDB).

What is called Kd is the concentration at which binding is half-saturated. By IC50 is commonly meant the concentration that inhibits the measured activity by half. A low value points to greater potency.

Experiment [1] concerns the target HLA-A*30:01. Briefly: IEDB peptide-MHC binding, purified MHC/competitive/radioactivity; filed as Kd, often an IC50 or EC50 that approximates it; ≥ and ≤ were set here for values at or beyond the usual limits of such assays.
Experiment [2] has as its target HLA-A*24:02. Kind of experiment: IEDB peptide-MHC binding, purified MHC/competitive/fluorescence; ≥ and ≤ were set here for values at or beyond the usual limits of such assays. To be noted: source organism: Zaire ebolavirus.
Experiment [3] has as its target HLA-A*02:01. Kind of experiment: IEDB peptide-MHC binding, purified MHC/competitive/fluorescence; filed as Kd, often an IC50 or EC50 that approximates it; ≥ and ≤ were set here for values at or beyond the usual limits of such assays.
Experiment [4] concerns the target HLA-A*26:01. Kind of experiment: IEDB peptide-MHC binding, purified MHC/competitive/radioactivity; filed as Kd, often an IC50 or EC50 that approximates it; ≥ and ≤ were set here for values at or beyond the usual limits of such assays.
The target of experiment [5] is HLA-A*01:01. Described as above.
In experiment [6] the target is HLA-B*51:01. The description is as above.
In experiment [7] the target is HLA-B*07:02. Described as above.
Experiment [8] concerns the target HLA-B*35:01. The description is as above.
In experiment [9] the target is HLA-B*53:01. The description is as above.
Experiment [10] has as its target HLA-B*54:01. The experiment is described as above.
The target of experiment [11] is HLA-A*02:01. Kind of experiment: IEDB peptide-MHC binding, purified MHC/competitive/fluorescence; ≥ and ≤ were set here for values at or beyond the usual limits of such assays. As to conditions: source organism: Zaire ebolavirus.
Setting [12] is: source organism: Dengue virus 4 Philippines/H241/1956.
Where [13] appears, read: source organism: Dengue virus 3 Martinique/1243/1999.
Where [14] appears, read: source organism: Vaccinia virus WR.
Setting [15] is: source organism: Vaccinia virus Copenhagen.
Setting [16] is: source organism: Dengue virus 1 Brazil/97-11/1997.
[17] abbreviates: source organism: Dengue virus 2 Jamaica/1409/1983.
Setting [18] is: source organism: SARS coronavirus Tor2.
[19] abbreviates: source organism: Dengue virus 4 Dominica/814669/1981.
Setting [20] is: source organism: Mammarenavirus brazilense.
Where [21] appears, read: source organism: Mammarenavirus lassaense.
[22] abbreviates: source organism: Triticum aestivum.
Where [23] appears, read: source organism: Mammarenavirus guanaritoense.

Turning to KKKTWLVHK, in experiment [1] (setting [12]), the Kd came out at 0.47 µM.
As to RVRNRVSTG, the Kd in experiment [1] (setting [13]) was determined as 0.115 µM.
Consider KGRRQYFYG, for which the Kd in experiment [1] (setting [14]) was found to be 0.00285 µM.
As for ICQLIIQAF, the IC50 in experiment [2] turned out to be 0.446 µM.
Take YLLEMLWRL: in experiment [3] (source organism: Human herpesvirus 4 strain B95-8), the Kd came out at 0.0045 µM.
For the sequence YLSDSAINI, the Kd in [3] (setting [15]) was 0.0013 µM.
On to ESALNDTWKI, for which the Kd in experiment [4] (source organism: Dengue virus 2 Peru/IQT2913/1996) is at least 69.7 µM.
As for NSEQGGKAY, the Kd in [5] (setting [16]) is 0.482 µM.
As for EFLDYMPSM, in experiment [4] (setting [13]), the Kd is 16.2 µM.
Consider RAKSPTRQS, for which the Kd in experiment [1] (setting [14]) amounted to 0.26 µM.
Regarding VTEEIAVQNW, the Kd in experiment [5] (setting [17]) is at least 38.7 µM.
As to EYVDYMPVM, in [4] (setting [12]), the Kd was at least 21.3 µM.
In the case of SPYNSQNAVA, the Kd in experiment [6] (setting [18]) is 3.47 µM; in experiment [7] (setting [18]) it was 0.0594 µM; in experiment [8] (setting [18]), 8.24 µM; in experiment [9] (setting [18]) it was 15.9 µM; in experiment [10] (setting [18]), 0.0014 µM.
For the sequence NSALTLHWF, in [5] (setting [19]), the Kd amounted to 2.32 µM.
As to RPNHTIKGSF, the Kd in experiment [6] (setting [18]) was at least 69.6 µM; in experiment [7] (setting [18]) it was 0.0577 µM; in [8] (setting [18]) it was at least 69.9 µM; in experiment [9] (setting [18]) it was at least 69.9 µM; in experiment [10] (setting [18]), at least 69.9 µM.
Regarding LPTSIVVPI, the Kd in experiment [6] (setting [20]) was 0.0758 µM; in [7] (setting [20]), 0.124 µM; in experiment [8] (setting [20]), 0.00609 µM; in [9] (setting [20]) it was 0.00751 µM; in [10] (setting [20]) it was 0.0177 µM.
Turning to SPMVIATTDM, the Kd in [6] (setting [14]) is at least 52.7 µM; in experiment [7] (setting [14]), 0.0216 µM; in [8] (setting [14]), 0.0666 µM; in experiment [9] (setting [14]) it was 0.747 µM; in [10] (setting [14]) it was 1.04 µM.
Take RPSIGNVFKA: the Kd in experiment [6] (setting [14]) was at least 69.6 µM; in [7] (setting [14]) it was 3.83 µM; in [8] (setting [14]) it was at least 69.9 µM; in experiment [9] (setting [14]), at least 36.4 µM; in experiment [10] (setting [14]), 0.644 µM.
In the case of QDGLICGLR, the IC50 in experiment [2] is 0.428 µM; in [11], 13.3 µM.
Regarding DARIYSDPLA, in experiment [1] (setting [17]), the Kd came out at 0.744 µM.
As to DTVTYKCPL, the Kd in experiment [4] (setting [19]) amounted to 1.26 µM.
For CPNCYDSVM, the Kd worked out at 5.71 µM in experiment [6] (setting [21]); 0.205 µM in experiment [7] (setting [21]); 0.00787 µM in [8] (setting [21]); 0.0795 µM in experiment [9] (setting [21]); 4.5 µM in experiment [10] (setting [21]).
Take KSRRLNLFS: in experiment [1] (setting [14]), the Kd was 0.00328 µM.
Regarding KMRRERAAY, the Kd in experiment [1] (setting [14]) turned out to be 0.00304 µM.
With LVSIPRTNIV, the Kd in [3] (source organism: Variola virus) came out at 0.279 µM.
VPVLEKKVCA: the Kd in experiment [6] (setting [14]) is at least 29.1 µM; in [7] (setting [14]) it was 3 µM; in [8] (setting [14]), 7.68 µM; in [9] (setting [14]), at least 26.4 µM; in experiment [10] (setting [14]), 0.256 µM.
LSRNKKPRI: the Kd in experiment [1] (setting [16]) came to 7.69 µM.
In the case of STSSSYLYA, the Kd in [1] (setting [15]) is 0.0133 µM.
For the sequence ETLGEKWKRQ, the Kd in experiment [4] (setting [16]) turned out to be 12.3 µM.
On to VPDADPPIPY, for which the Kd in experiment [6] (setting [14]) was at least 69.6 µM; in experiment [7] (setting [14]) it was 2.02 µM; in [8] (setting [14]), 0.142 µM; in experiment [9] (setting [14]) it was 1.65 µM; in experiment [10] (setting [14]) it was 19.3 µM.
For the sequence QPFPSQQPY, the Kd was at least 43.5 µM in experiment [6] (setting [22]); at least 77.5 µM in experiment [7] (setting [22]); 0.0668 µM in experiment [8] (setting [22]); 7.55 µM in experiment [9] (setting [22]); at least 78.1 µM in [10] (setting [22]).
For the sequence KRTLTPQPME, the Kd in experiment [1] (setting [13]) was 15.1 µM.
PKAENTNTS returned an IC50 in [2] of 61 µM.
As to NAICSAVPVD, the Kd in experiment [1] (setting [16]) came out at 12.1 µM.
In the case of TPNNFSSIV, the Kd in [6] (setting [23]) is 1.25 µM; in [7] (setting [23]), 1.37 µM; in experiment [8] (setting [23]), 1.81 µM; in experiment [9] (setting [23]), 7.58 µM; in experiment [10] (setting [23]), 0.408 µM.
